Test [1] deals with T1, human MSLN-hFc protein (Acro, Cat. No. MSN-H5253) (human, UniProt Q13421 296-580).
T1 construct: the method names the coated protein as human MSLN-hFc (Acro); also called human MSLN full-length protein
Nature of the test: ELISA on coated antigen, antibody 0.001 nM. (In general: An ELISA detects its analyte on a solid surface through an enzyme-linked reagent.)

Test [2] deals with T2, human MSLN-R3 protein (human, UniProt Q13421 487-598).
T2 construct: also called hMSLN-R3
Nature of the test: ELISA on coated antigen, antibody 10 nM.

For test [3], the target named is T1, human MSLN-hFc protein (Acro, Cat. No. …). Nature of the test: ELISA on coated antigen, antibody 1 nM.
Test [4] addresses T2, human MSLN-R3 protein. Nature of the test: ELISA on coated antigen, antibody 0.1 nM.
Test [5] addresses T1, human MSLN-hFc protein (Acro, Cat. No. …). Nature of the test: ELISA on coated antigen, antibody 0.1 nM.
Test [6] has the same target. Nature of the test: ELISA on coated antigen, antibody 100 nM.
The target is the same in test [7]. Nature of the test: ELISA on coated antigen, antibody 0.0001 nM.
Test [8] addresses T2, human MSLN-R3 protein. Nature of the test: ELISA on coated antigen, antibody 1 nM.
Test [9] has as its target T2, human MSLN-R3 protein. Nature of the test: ELISA on coated antigen, antibody 0.0001 nM.
For test [10], the target named is T2, human MSLN-R3 protein. Nature of the test: ELISA on coated antigen, antibody 0.01 nM.
Test [11] addresses T2, human MSLN-R3 protein. Nature of the test: ELISA on coated antigen, antibody 0.001 nM.
Test [12] has as its target T1, human MSLN-hFc protein (Acro, Cat. No. …). Nature of the test: ELISA on coated antigen, antibody 0.01 nM.
Test [13] has the same target. Nature of the test: ELISA on coated antigen, antibody 10 nM.
Test [14] addresses T2, human MSLN-R3 protein. Nature of the test: ELISA on coated antigen, antibody 100 nM.
Test [15] concerns the target T2, human MSLN-R3 protein. Nature of the test: ELISA on coated antigen, antibody 1 nM. The source holds these as a separate data set.
Test [16] deals with T2, human MSLN-R3 protein. Nature of the test: ELISA on coated antigen, antibody 0.1 nM. The source holds these as a separate data set.
Test [17] addresses T2, human MSLN-R3 protein. Nature of the test: ELISA on coated antigen, antibody 0.001 nM. This is another data set of the same source.
For test [18], the target named is T2, human MSLN-R3 protein. Nature of the test: ELISA on coated antigen, antibody 100 nM. This is another data set of the same source.
The target in test [19] is T2, human MSLN-R3 protein. Nature of the test: ELISA on coated antigen, antibody 0.0001 nM. This is another data set of the same source.
For test [20], the target named is T2, human MSLN-R3 protein. Nature of the test: ELISA on coated antigen, antibody 10 nM. This is another data set of the same source.
In test [21] the target is T2, human MSLN-R3 protein. Nature of the test: ELISA on coated antigen, antibody 0.01 nM. This is another data set of the same source.

T1 sequence (Q13421 other isoform, or with tags, fused parts or gaps limits assumed): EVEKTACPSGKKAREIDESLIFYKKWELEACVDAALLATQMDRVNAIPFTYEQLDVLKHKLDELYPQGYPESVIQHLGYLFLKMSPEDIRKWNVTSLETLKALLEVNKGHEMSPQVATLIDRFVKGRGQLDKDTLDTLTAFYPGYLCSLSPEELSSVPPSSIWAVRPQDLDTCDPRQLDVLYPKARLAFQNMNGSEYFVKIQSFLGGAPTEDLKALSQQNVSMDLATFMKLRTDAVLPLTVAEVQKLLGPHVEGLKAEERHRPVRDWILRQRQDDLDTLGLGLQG
T2 sequence (Q13421 495-606, form in doubt): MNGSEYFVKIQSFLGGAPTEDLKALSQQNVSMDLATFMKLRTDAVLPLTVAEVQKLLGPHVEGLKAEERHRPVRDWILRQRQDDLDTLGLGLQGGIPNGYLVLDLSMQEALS

B1: F7.33.24-H2 (scFv, not shown: small tags and cut ends)
scFv: EVQLVQSGAEVKKPGASVKVSCKASGYTFTSYWMHWVRQAPGQRLEWMGNVNPSNGGSNYNEKFKNRVTITVDKSASTAYMELSSLRSEDTAVYYCAPHYIGSRPGFAYWGQGTLVTVSSGGGGSGGGGSGGGGSDIVMTQTPLSLSVTPGQPASISCKASQNVGTNIAWYLQKPGQSPQALIYSASYRYSGVPDRFSGSGSGTDFTLKISRVEAEDVGVYYCQQYNSYPLTFGGGTKVEIK
notes: also called S009-F7.33.24 humanized antibody VH1 + VL2
For B1, the OD450 worked out at 0.05 OD450 in test [1]; 1.62 OD450 in the test with human MSLN-R3 protein [2]; 0.4 OD450 in test [3]; 0.06 OD450 with human MSLN-R3 protein [4]; 0.08 OD450 in test [5]; 2.91 OD450 in test [6]. Moreover, the OD450 in [7] worked out at 0.05 OD450; in the test with human MSLN-R3 protein [8], 0.42 OD450; with human MSLN-R3 protein [9], 0.04 OD450; with human MSLN-R3 protein [10], 0.04 OD450; in the test with human MSLN-R3 protein [11], 0.04 OD450; in [12], 0.05 OD450. In addition, the OD450 in test [13] was found to be 2.07 OD450; with human MSLN-R3 protein [14], 1.9 OD450.

B2: Tab110 (scFv, not shown: small tags and cut ends)
scFv: QQQLEESGGGLVKPEGSLTLTCKASGFDLGFYFYACWVRQAPGKGLEWIACIYTAGSGSTYYASWAKGRFTISKASSTTVTLQMTSLAAADTATYFCARSTANTRSTYYLNLWGPGTLVTVSSGGGGSGGGGSGGGGSDVVMTQTPASVSEPVGGTVTIKCQASQRISSYLSWYQQKPGQRPKLLIFGASTLASGVPSRFKGSGSGTEYTLTISDLECADAATYYCQSYAYFDSNNWHAFGGGTEVVV
notes: also called YP218 VH-(G4S)3-VL-his antibody; positive control
As to B2, the OD450 is 0.06 OD450 with human MSLN-R3 protein [15]; 0.78 OD450 with human MSLN-R3 protein [2]; 0.04 OD450 in the test with human MSLN-R3 protein [16]; 0.04 OD450 with human MSLN-R3 protein [4]; 0.06 OD450 with human MSLN-R3 protein [8]; 0.05 OD450 with human MSLN-R3 protein [9]. Further, the OD450 amounted to 0.04 OD450 with human MSLN-R3 protein [10]; 0.04 OD450 with human MSLN-R3 protein [11]; 0.04 OD450 with human MSLN-R3 protein [17]; 0.98 OD450 in the test with human MSLN-R3 protein [18]; 0.05 OD450 in the test with human MSLN-R3 protein [19]; 0.78 OD450 with human MSLN-R3 protein [20]. Moreover, the values for the OD450 with human MSLN-R3 protein [21] and in the test with human MSLN-R3 protein [14] were 0.04 OD450 and 0.98 OD450, respectively.

B3: F7.33.24-H1 (scFv, not shown: small tags and cut ends)
scFv: EVQLVQSGAEVKKPGASVKVSCKASGYTFTSYWMHWVRQAPGQRLEWMGNVNPSNGGSNYNEKFKNRVTITVDKSASTAYMELSSLRSEDTAVYYCAPHYIGSRPGFAYWGQGTLVTVSSGGGGSGGGGSGGGGSDIVMTQSPDSLAVSLGERATINCKASQNVGTNIAWYQQKPGQSPKALIYSASYRYSGVPDRFSGSGSGTDFTLTISSLQAEDVAVYYCQQYNSYPLTFGGGTKVEIK
notes: also called S009-F7.33.24 humanized antibody VH1 + VL1
As for B3, the OD450 in test [1] was found to be 0.04 OD450; with human MSLN-R3 protein [2], 1.61 OD450; in test [3], 0.59 OD450; with human MSLN-R3 protein [4], 0.08 OD450; in test [5], 0.1 OD450; in test [6] it was 2.9 OD450. Besides, the OD450 in [7] is 0.05 OD450; in the test with human MSLN-R3 protein [8], 0.52 OD450; with human MSLN-R3 protein [9], 0.04 OD450; with human MSLN-R3 protein [10], 0.04 OD450; with human MSLN-R3 protein [11], 0.04 OD450; in test [12], 0.05 OD450. In addition, the OD450 in test [13] worked out at 2.53 OD450; in the test with human MSLN-R3 protein [14], 1.93 OD450.

B4: F7.33.24-H10 (scFv, not shown: small tags and cut ends)
scFv: EVQLVQSGAEVKKPGASVKVSCKASGYTFTSYWMHWVRQAPGQGLEWMGNVNPSNAGSNYNEKFKNRVTITVDKSASTAYMELSSLRSEDTAVYYCAPHYIGSRPGFAYWGQGTLVTVSSGGGGSGGGGSGGGGSDIVMTQSPDSLAVSLGERATINCKASQNVGTNIAWYQQKPGQSPKALIYSASYRYSGVPDRFSGSGSGTDFTLTISSLQAEDVAVYYCQQYNSYPLTFGGGTKVEIK
notes: also called S009-F7.33.24 humanized antibody VH2a + VL1
Turning to B4, the OD450 in test [1] was determined as 0.04 OD450; with human MSLN-R3 protein [2] it was 1.85 OD450; in [3] it was 0.51 OD450; with human MSLN-R3 protein [4] it was 0.08 OD450; in [5], 0.09 OD450; in test [6], 3.03 OD450. Besides, the OD450 was 0.04 OD450 in test [7]; 0.55 OD450 with human MSLN-R3 protein [8]; 0.05 OD450 in the test with human MSLN-R3 protein [9]; 0.04 OD450 in the test with human MSLN-R3 protein [10]; 0.05 OD450 in the test with human MSLN-R3 protein [11]; 0.05 OD450 in test [12]. Besides, the OD450 worked out at 2.28 OD450 in [13] and 2.26 OD450 with human MSLN-R3 protein [14].

B5: F7.33.24-H7 (scFv, not shown: small tags and cut ends)
scFv: EVQLVQSGAEVKKPGASVKVSCKASGYTFTSYWMHWVRQAPGQGLEWMGNVNPSNGGSNYNEKFKNRVTITVDKSASTAYMELSSLRSEDTAVYYCAPHYIGSRPGFAYWGQGTLVTVSSGGGGSGGGGSGGGGSDIVMTQSPDSLAVSLGERATINCKASQNVGTNIAWYQQKPGQSPKALIYSASYRYSGVPDRFSGSGSGTDFTLTISSLQAEDVAVYYCQQYNSYPLTFGGGTKVEIK
notes: also called S009-F7.33.24 humanized antibody VH2 + VL1
Take B5: the OD450 in test [1] was 0.06 OD450; with human MSLN-R3 protein [2] it was 1.52 OD450; in test [3] it was 0.48 OD450; with human MSLN-R3 protein [4] it was 0.06 OD450; in test [5] it was 0.1 OD450; in test [6], 2.79 OD450. Also, the OD450 in test [7] was 0.05 OD450; with human MSLN-R3 protein [8], 0.33 OD450; with human MSLN-R3 protein [9], 0.04 OD450; with human MSLN-R3 protein [10], 0.04 OD450; with human MSLN-R3 protein [11] it was 0.04 OD450; in test [12], 0.05 OD450. For the same molecule, the OD450 in [13] came to 2.32 OD450; in the test with human MSLN-R3 protein [14], 1.95 OD450.

B6: F7.33.24-H4 (scFv, not shown: small tags and cut ends)
scFv: EVQLVQSGAEVKKPGASVKVSCKASGYTFTSYWMHWVRQAPGQRLEWMGNVNPSSGGSNYNEKFKNRVTITVDKSASTAYMELSSLRSEDTAVYYCAPHYIGSRPGFAYWGQGTLVTVSSGGGGSGGGGSGGGGSDIVMTQSPDSLAVSLGERATINCKASQNVGTNIAWYQQKPGQSPKALIYSASYRYSGVPDRFSGSGSGTDFTLTISSLQAEDVAVYYCQQYNSYPLTFGGGTKVEIK
notes: also called S009-F7.33.24 humanized antibody VH1a + VL1
Consider B6, for which the OD450 in [1] came to 0.05 OD450; with human MSLN-R3 protein [2] it was 1.64 OD450; in test [3] it was 0.45 OD450; with human MSLN-R3 protein [4], 0.07 OD450; in test [5] it was 0.08 OD450; in test [6], 2.95 OD450. Also, the OD450 in test [7] worked out at 0.05 OD450; with human MSLN-R3 protein [8] it was 0.45 OD450; in the test with human MSLN-R3 protein [9], 0.04 OD450; in the test with human MSLN-R3 protein [10], 0.04 OD450; in the test with human MSLN-R3 protein [11], 0.04 OD450; in test [12], 0.07 OD450. For the same molecule, the OD450 in test [13] worked out at 2.21 OD450; with human MSLN-R3 protein [14], 1.95 OD450.

B7: Tab111 (scFv, not shown: small tags and cut ends)
scFv: DVVMTQTPASVSEPVGGTVTIKCQASQRISSYLSWYQQKPGQRPKLLIFGASTLASGVPSRFKGSGSGTEYTLTISDLECADAATYYCQSYAYFDSNNWHAFGGGTEVVVGGGGSGGGGSGGGGSQQQLEESGGGLVKPEGSLTLTCKASGFDLGFYFYACWVRQAPGKGLEWIACIYTAGSGSTYYASWAKGRFTISKASSTTVTLQMTSLAAADTATYFCARSTANTRSTYYLNLWGPGTLVTVSS
notes: also called YP218 VL-(G4S)3-VH-his antibody; positive control
In the case of B7, the OD450 is 0.51 OD450 with human MSLN-R3 protein [15]; 1.88 OD450 in the test with human MSLN-R3 protein [2]; 0.09 OD450 in the test with human MSLN-R3 protein [16]; 0.09 OD450 with human MSLN-R3 protein [4]; 0.51 OD450 with human MSLN-R3 protein [8]; 0.05 OD450 with human MSLN-R3 protein [9]. Further, the OD450 with human MSLN-R3 protein [10] was 0.05 OD450; with human MSLN-R3 protein [11], 0.05 OD450; with human MSLN-R3 protein [17], 0.05 OD450; with human MSLN-R3 protein [18], 2.1 OD450; with human MSLN-R3 protein [19], 0.05 OD450; in the test with human MSLN-R3 protein [20] it was 1.88 OD450. Also, the OD450 with human MSLN-R3 protein [21] is 0.05 OD450; with human MSLN-R3 protein [14] it was 2.1 OD450.

Values taken from US20250250357A1 (NANJING ZAIMING PHARMACEUTICAL, published 2025).
